The target in one experiment is Recombinant Human β-NGF (human, UniProt P01138 122-241). The experiment is described as follows: cell-based or functional assay.
The target of experiment [1] is Recombinant Human TNF-α/TNFSF1A (human, UniProt P01375 77-233). The experiment is described as follows: cell-based or functional assay.
Chain of Recombinant Human TNF-α/TNFSF1A (P01375 77-233 limits assumed): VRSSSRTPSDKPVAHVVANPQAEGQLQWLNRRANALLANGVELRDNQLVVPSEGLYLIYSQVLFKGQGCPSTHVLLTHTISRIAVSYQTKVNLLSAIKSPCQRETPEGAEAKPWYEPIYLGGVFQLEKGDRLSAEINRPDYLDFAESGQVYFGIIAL

Chain of Recombinant Human β-NGF (P01138 122-241 limits assumed): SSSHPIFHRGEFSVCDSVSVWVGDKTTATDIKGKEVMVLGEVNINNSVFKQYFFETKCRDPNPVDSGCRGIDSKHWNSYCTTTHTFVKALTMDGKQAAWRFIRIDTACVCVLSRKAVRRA

B1: DVD2718 (bispecific antibody, IgG1)
VH: EVQLVESGGGLVQPGGSLRLSCAASGFSLTNNNVNWVRQAPGKGLEWVGGVWAGGATDYNSALKSRFTISRDNSKNTAYLQMNSLRAEDTAVYYCARDGGYSSSTLYAMDAWGQGTLVTVSSGGGGSGGGGSEVQLVESGGGLVQPGGSLRLSCAASGFTFSNYGVTWVRQAPGKGLEWVSMIWADGSTHYASSVKGRFTISRDNSKNTLYLQMNSLRAEDTAVYYCAREWQHGPVAYWGQGTLVTVSS
VL: DIQMTQSPSSLSASVGDRVTITCRASEDIYNALAWYQQKPGKAPKLLIYNTDTLHTGVPSRFSGSGSGTDYTLTISSLQPEDFATYFCQHYFHYPRTFGQGTKVEIKRGGSGGGGSGDIQMTQSPSSLSASVGDRVTITCRASQLVSSAVAWYQQKPGKAPKLLIYWASARHTGVPSRFSGSGSGTDFTLTISSLQPEDFATYYCQQHYKTPFTFGQGTKLEIKR
Turning to B1, the “N-Terminal VD NGF Neutralization Assay IC50” value with Recombinant Human β-NGF stood at 0.008 nM. Further, the “C-Terminal VD huTNFα Neutralization Assay IC50” value in experiment [1] was determined as 0.249 nM.

B2: DVD2714 (bispecific antibody, IgG1)
VH: EVQLVESGGGLVQPGGSLRLSCAASGFTFSNYGVTWVRQAPGKGLEWVSMIWADGSTHYASSVKGRFTISRDNSKNTLYLQMNSLRAEDTAVYYCAREWQHGPVAYWGQGTLVTVSSASTKGPEVQLVESGGGLVQPGGSLRLSCAASGFSLTNNNVNWVRQAPGKGLEWVGGVWAGGATDYNSALKSRFTISRDNSKNTAYLQMNSLRAEDTAVYYCARDGGYSSSTLYAMDAWGQGTLVTVSS
VL: DIQMTQSPSSLSASVGDRVTITCRASQLVSSAVAWYQQKPGKAPKLLIYWASARHTGVPSRFSGSGSGTDFTLTISSLQPEDFATYYCQQHYKTPFTFGQGTKLEIKRTVAAPDIQMTQSPSSLSASVGDRVTITCRASEDIYNALAWYQQKPGKAPKLLIYNTDTLHTGVPSRFSGSGSGTDYTLTISSLQPEDFATYFCQHYFHYPRTFGQGTKVEIKR
For the molecule B2, the “C-Terminal VD NGF Neutralization Assay IC50” value with Recombinant Human β-NGF worked out at 6.85 nM. Further, the “N-Terminal VD huTNFα Neutralization Assay IC50” value in experiment [1] was determined as 0.008 nM.

B3: DVD2717 (bispecific antibody, IgG1)
VH: EVQLVESGGGLVQPGGSLRLSCAASGFTFSNYGVTWVRQAPGKGLEWVSMIWADGSTHYASSVKGRFTISRDNSKNTLYLQMNSLRAEDTAVYYCAREWQHGPVAYWGQGTLVTVSSASTKGPSVFPLAPEVQLVESGGGLVQPGGSLRLSCAASGFSLTNNNVNWVRQAPGKGLEWVGGVWAGGATDYNSALKSRFTISRDNSKNTAYLQMNSLRAEDTAVYYCARDGGYSSSTLYAMDAWGQGTLVTVSS
VL: DIQMTQSPSSLSASVGDRVTITCRASQLVSSAVAWYQQKPGKAPKLLIYWASARHTGVPSRFSGSGSGTDFTLTISSLQPEDFATYYCQQHYKTPFTFGQGTKLEIKRTVAAPDIQMTQSPSSLSASVGDRVTITCRASEDIYNALAWYQQKPGKAPKLLIYNTDTLHTGVPSRFSGSGSGTDYTLTISSLQPEDFATYFCQHYFHYPRTFGQGTKVEIKR
For the molecule B3, the “C-Terminal VD NGF Neutralization Assay IC50” value with Recombinant Human β-NGF turned out to be 0.936 nM. In experiment [1], the “N-Terminal VD huTNFα Neutralization Assay IC50” value turned out to be 0.278 nM.

B4: DVD2716 (bispecific antibody, IgG1)
VH: EVQLVESGGGLVQPGGSLRLSCAASGFTFSNYGVTWVRQAPGKGLEWVSMIWADGSTHYASSVKGRFTISRDNSKNTLYLQMNSLRAEDTAVYYCAREWQHGPVAYWGQGTLVTVSSASTKGPEVQLVESGGGLVQPGGSLRLSCAASGFSLTNNNVNWVRQAPGKGLEWVGGVWAGGATDYNSALKSRFTISRDNSKNTAYLQMNSLRAEDTAVYYCARDGGYSSSTLYAMDAWGQGTLVTVSS
VL: DIQMTQSPSSLSASVGDRVTITCRASQLVSSAVAWYQQKPGKAPKLLIYWASARHTGVPSRFSGSGSGTDFTLTISSLQPEDFATYYCQQHYKTPFTFGQGTKLEIKRTVAAPSVFIFPPDIQMTQSPSSLSASVGDRVTITCRASEDIYNALAWYQQKPGKAPKLLIYNTDTLHTGVPSRFSGSGSGTDYTLTISSLQPEDFATYFCQHYFHYPRTFGQGTKVEIKR
For the molecule B4, the “C-Terminal VD NGF Neutralization Assay IC50” value in the experiment with Recombinant Human β-NGF amounted to 0.624 nM. Moreover, the “N-Terminal VD huTNFα Neutralization Assay IC50” value in experiment [1] is 0.014 nM.

These data come from US20140271457A1 (AbbVie / Abbott, published 2014).
